The source of these data is patent US20220251191A1 (ARCH ONCOLOGY, published 2022).

By Kd is commonly meant the equilibrium constant for the complex coming apart.

In assay [1] the target is T1, recombinant biotin tagged IL-7 Receptor-alpha (IL-7Rα) (Acrobiosystems #IL-7-H82F8) (UniProt P16871 21-236, biotin tag (site not stated)).
T1 construct: Bought reagent; also called IL-7Ra; α receptor
T1 sequence (looked up): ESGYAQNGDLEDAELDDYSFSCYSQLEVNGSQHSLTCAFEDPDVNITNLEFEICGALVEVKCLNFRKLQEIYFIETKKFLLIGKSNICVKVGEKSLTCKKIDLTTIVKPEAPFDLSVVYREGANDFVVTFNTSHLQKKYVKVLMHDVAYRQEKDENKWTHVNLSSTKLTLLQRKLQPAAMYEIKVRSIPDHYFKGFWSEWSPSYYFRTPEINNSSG
As to the kind of experiment: TR-FRET, previous analyses. A general note: In TR-FRET formats the signal depends on donor and acceptor labels being close together.

Assay [2] concerns the target T1, recombinant biotin tagged IL-7 …. As to the kind of experiment: TR-FRET, earlier analyses.
Assay [3] has the same target. As to the kind of experiment: TR-FRET, His-tagged IL-7 and biotin IL-7Rα, equilibrium fit (FIG. 3). The protocol:
(§1) IL-7 binding affinity was determined by measuring the TR-FRET fluorescence signal at a range of concentrations of recombinant IL-7 and IL-7 Receptor-alpha (IL-7Rα). In a buffer of PBS (pH 7.4)+0.05% BSA and 0.005% Tween-20, make 4×stocks of 160 nM TR-FRET acceptor linked α6-his IgG (Perkin Elmer #TRF0105-M), 80 nM TR-FRET donor linked streptavidin (Perkin Elmer #AD0062), recombinant 6-his tagged IL-7 wildtype or mutant variant (at concentrations up to 160 nM), and recombinant biotin tagged IL-7Rα (Acrobiosystems #IL-7-H82F8) (at concentrations up to 80 nM). For each sample to be tested, 5 μL of the 4× stock of a6-his IgG linked acceptor is mixed with 5 μL of a 4×working stock of IL-7. Separately, for each sample, 5 μL of 4×TR-FRET donor linked to streptavidin is mixed with 5 μL of the 4×working stock of recombinant IL-7Rα linked to biotin. […] Plates were immediately spun at 750 rpm for 30 sec and then immediately placed in PHERAstar plate reader (BMG Labtech) to read TR-FRET signal. Continuously over the next 30 minutes, fluorescence for donor signal (337 nm excitation/620 nm emission) and acceptor signal (337 nm excitation/655 nm emission) are read. The TR-FRET binding signal is determined by taking the ratio of acceptor signal over donor signal and multiplying by 10,000. Equilibrium is defined at the time point where the readings plateau before fluorescence activity begins to decay. […]

The target of assay [4] is T2, IL-7Rα with 20 nM receptor γ (UniProt P16871 21-236; P31785 23-262, biotin tag (site not stated)).
T2 construct: Mixture of IL-7Rα and soluble receptor γ in the TR-FRET assay; The fit treated the receptor chains as one combined unit; also called IL-7Ra with the γ subunit; IL-7 with γ
T2 sequence (looked up) 1: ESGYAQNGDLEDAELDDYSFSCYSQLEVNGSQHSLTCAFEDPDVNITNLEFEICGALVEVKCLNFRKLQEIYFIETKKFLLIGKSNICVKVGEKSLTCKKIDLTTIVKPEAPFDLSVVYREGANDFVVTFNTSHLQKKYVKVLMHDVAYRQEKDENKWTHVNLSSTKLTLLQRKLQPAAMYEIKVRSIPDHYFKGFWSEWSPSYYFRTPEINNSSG
T2 sequence (looked up) 2: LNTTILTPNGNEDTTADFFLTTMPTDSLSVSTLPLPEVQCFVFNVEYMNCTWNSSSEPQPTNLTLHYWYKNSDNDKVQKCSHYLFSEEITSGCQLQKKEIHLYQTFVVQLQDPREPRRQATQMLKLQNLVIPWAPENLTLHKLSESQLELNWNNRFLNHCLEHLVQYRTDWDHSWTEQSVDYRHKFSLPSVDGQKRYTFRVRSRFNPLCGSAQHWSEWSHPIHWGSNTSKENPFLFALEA
The assay is described as follows: TR-FRET, with 20 nM receptor γ against without (FIG. 5). Here is the method: as §1

Assay [5] addresses T1, recombinant biotin tagged IL-7 …. The assay is described as follows: TR-FRET ligand-receptor binding assay, equilibrium fit. The protocol:
IL-7 binding affinity was determined by measuring the TR-FRET fluorescence signal at a range of concentrations of recombinant IL-7 and IL-7 Receptor-alpha (IL-7Rα). In a buffer of PBS (pH 7.4)+0.05% BSA and 0.005% Tween-20, make 4×stocks of 160 nM TR-FRET acceptor linked α6-his IgG (Perkin Elmer #TRF0105-M), 80 nM TR-FRET donor linked streptavidin (Perkin Elmer #AD0062), recombinant 6-his tagged IL-7 wildtype or mutant variant (at concentrations up to 160 nM), and recombinant biotin tagged IL-7Rα (Acrobiosystems #IL-7-H82F8) (at concentrations up to 80 nM). For each sample to be tested, 5 μL of the 4× stock of a6-his IgG linked acceptor is mixed with 5 μL of a 4×working stock of IL-7. Separately, for each sample, 5 μL of 4×TR-FRET donor linked to streptavidin is mixed with 5 μL of the 4×working stock of recombinant IL-7Rα linked to biotin. Mixtures were incubated at room temperature for 30 minutes during which the 10 μL of a6-his linked acceptor/IL-7 mix was distributed into indicated wells in 384-well shallow black ProxiPlate (Perkin Elmer #6008260) and kept covered from light. After the 30 min incubation, 10 μL of streptavidin linked donor/IL-7Ra mixture was placed in designated wells containing designated concentration of IL-7 plus acceptor. Plates were immediately spun at 750 rpm for 30 sec and then immediately placed in PHERAstar plate reader (BMG Labtech) to read TR-FRET signal. Continuously over the next 30 minutes, fluorescence for donor signal (337 nm excitation/620 nm emission) and acceptor signal (337 nm excitation/655 nm emission) are read. The TR-FRET binding signal is determined by taking the ratio of acceptor signal over donor signal and multiplying by 10,000. Equilibrium is defined at the time point where the readings plateau before fluorescence activity begins to decay. Equilibrium values are then fit to a standard equilibrium equation assuming single site binding using the graphing program GraFit (Erithacus Software).

In assay [6] the target is T3, IL-7Rα with 20 nM receptor γ (UniProt P16871 21-236; P31785 23-262, biotin tag (site not stated)).
T3 chain 1: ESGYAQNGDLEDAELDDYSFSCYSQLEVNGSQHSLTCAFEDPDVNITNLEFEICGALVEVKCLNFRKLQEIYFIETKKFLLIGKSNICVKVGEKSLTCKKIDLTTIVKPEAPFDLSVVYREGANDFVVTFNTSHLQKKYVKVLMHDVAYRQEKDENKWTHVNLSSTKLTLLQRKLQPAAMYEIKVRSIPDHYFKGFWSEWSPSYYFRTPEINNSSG
T3 chain 2: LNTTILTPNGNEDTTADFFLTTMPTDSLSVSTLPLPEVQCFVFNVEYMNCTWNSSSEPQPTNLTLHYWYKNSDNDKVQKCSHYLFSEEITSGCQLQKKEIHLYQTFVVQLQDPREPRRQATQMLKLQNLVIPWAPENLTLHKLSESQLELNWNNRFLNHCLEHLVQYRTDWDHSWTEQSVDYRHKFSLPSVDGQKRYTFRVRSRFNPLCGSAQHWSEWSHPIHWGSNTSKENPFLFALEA
As to the kind of experiment: TR-FRET; with gamma.

Assay [7] has as its target T1, recombinant biotin tagged IL-7 …. As to the kind of experiment: TR-FRET, Expt. 1. The protocol: as §1
Assay [8] has the same target. The assay is described as follows: TR-FRET, only the α receptor present (FIG. 4). Here is the method:
as §1

Assay [9] has the same target. As to the kind of experiment: TR-FRET, without receptor γ (FIG. 5). Here is the method:
as §1

The target is the same in assay [10]. As to the kind of experiment: TR-FRET, Expt. 2. Here is the method:
as §1

The target is the same in assay [11]. As to the kind of experiment: binding analysis with two Kd parameters, in-house against commercially obtained IL-7 (taken to be TR-FRET on IL-7Rα).

B1: IL-7 WT (in-house with His tag) (ligand)
chain: MDCDIEGKDGKQYESVLMVSIDQLLDSMKEIGSNCLNNEFNFFKRHICDANKEGMFLFRAARKLRQFLKMNSTGDFDLHLLKVSEGTTILLNCTGQVKGRKPAALGEAQPTKSLEENKSLKEQKKLNDLCFLKRLLQEIKTCWNKILMGTKEHENLYFQGHHHHHH
notes: also called IL-7 WT (in-house-His 6); in-house IL-7
As to B1, the Kd stood at 6 nM in assay [1]; 6.6 nM in [2]; 5.44 nM in assay [3]; 17 nM in [5]; 2.75 nM in assay [6]; 14 nM in assay [7]. Besides, the equilibrium dissociation constant (Kd) turned out to be 20.2 nM in assay [8], 12.1 nM in assay [9] and 20 nM in assay [10]. In assay [4], the “fold increase in apparent affinity with receptor γ against without” value stood at 5 fold.

B2: IL-7 S1 with C-terminal His-tag (ligand)
chain: MDCDIEGKDGIQYESVLMVSIDQLLDSMKEIGSNCLNNEFNFFKRHICDANKEGMFLFRAARKLRQFLKMNSTGDFDLHLLKVSEGTTILLNCTGQVKGRKPAALGEAQPTKSLEENKSLKEQKKLNDLCFLKRLLQEIKTCWNKILMGTKEHENLYFQGHHHHHH
notes: also called IL-7 mutant S1; S1 mutant
Turning to B2, the Kd in assay [5] came out at 55 nM; in [7], 37 nM; in assay [8] it was 34.8 nM; in [10], 72 nM.

B3: IL-7 WT (commercial-sourced) (ligand)
chain: MDCDIEGKDGKQYESVLMVSIDQLLDSMKEIGSNCLNNEFNFFKRHICDANKEGMFLFRAARKLRQFLKMNSTGDFDLHLLKVSEGTTILLNCTGQVKGRKPAALGEAQPTKSLEENKSLKEQKKLNDLCFLKRLLQEIKTCWNKILMGTKEH
notes: also called commercially obtained IL-7; commercial IL-7
As for B3, the equilibrium dissociation constant (Kd) in assay [5] was found to be 21.7 nM. Further, the “fold higher Kd than in-house IL-7” value in [11] is approximately 4 fold.
